Measured values published in publication PMC8710476.

Tests used:
[1] = biological target: CB6 (class I)
[2] = biological target: REGN10933 (class I)
[3] = biological target: BD368-2 (class II)

Row | Substance | ratio to parent [1] | ratio to parent [2] | ratio to parent [3]
1 | SARS-CoV-2 full-length spike, WT D614G, expressed on the cell surface (from UniProt P0DTC2) Gamma (P.1) | -266 fold | – | –
2 | SARS-CoV-2 full-length spike, WT D614G, expressed on the cell surface (from UniProt P0DTC2) Beta (B.1.351) | -76.3 fold | -3.2 fold | -569 fold
3 | SARS-CoV-2 full-length spike, WT D614G, expressed on the cell surface (from UniProt P0DTC2) Alpha (B.1.1.7) | 2.7 fold | – | 1.3 fold
